The data set concerns CTCF (human). Nature of the data set: EMSA. (In general: A gel shift assay detects complexes by their altered migration in electrophoresis.)

For one substance, Kd results are on record in article doi:10.1101/2019.12.15.876185.

Substance Cacna1b e37a DNA probe (139 bp) yielded a Kd of 0.0461 ng.
